In article PMC6451933:

Biological target: t-SNARE complex (syntaxin 1 and SNAP25) (UniProt Q16623)
Sequence (Q16623 whole entry, chain 1 of 2): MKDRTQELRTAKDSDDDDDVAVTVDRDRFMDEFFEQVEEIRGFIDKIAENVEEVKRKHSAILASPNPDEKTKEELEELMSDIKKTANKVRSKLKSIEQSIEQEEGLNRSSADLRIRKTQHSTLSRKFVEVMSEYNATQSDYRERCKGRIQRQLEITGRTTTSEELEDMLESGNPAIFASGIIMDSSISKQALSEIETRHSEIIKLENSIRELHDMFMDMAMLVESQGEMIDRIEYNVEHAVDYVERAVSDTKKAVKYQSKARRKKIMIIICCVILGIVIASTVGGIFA
Sequence (chain, as listed by the source, chain 2 of 2): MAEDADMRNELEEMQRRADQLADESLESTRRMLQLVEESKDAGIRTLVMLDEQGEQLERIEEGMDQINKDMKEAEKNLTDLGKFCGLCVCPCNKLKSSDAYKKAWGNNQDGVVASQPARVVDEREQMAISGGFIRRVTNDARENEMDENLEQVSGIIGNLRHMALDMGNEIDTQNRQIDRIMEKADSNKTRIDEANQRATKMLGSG

“VAMP2 p.Ser75Pro variant (from UniProt P63027 1-116) (natural protein)” showed a reconstituted liposome lipid-mixing assay (NBD dequenching), basal fusion without Munc18-1 of v-liposomes with t-SNARE liposomes, against WT VAMP2 of 25%.
